# Measurements taken from IntAct's records for PubMed 16979624.
# Legend:
# [1] = target: home3_human HOMER3 (UniProt Q9NSC5)
# [2] = target: enah_human ENAH (UniProt Q8N8S7)
# Chain of UniProt Q8N8S7 (Q8N8S7 whole entry): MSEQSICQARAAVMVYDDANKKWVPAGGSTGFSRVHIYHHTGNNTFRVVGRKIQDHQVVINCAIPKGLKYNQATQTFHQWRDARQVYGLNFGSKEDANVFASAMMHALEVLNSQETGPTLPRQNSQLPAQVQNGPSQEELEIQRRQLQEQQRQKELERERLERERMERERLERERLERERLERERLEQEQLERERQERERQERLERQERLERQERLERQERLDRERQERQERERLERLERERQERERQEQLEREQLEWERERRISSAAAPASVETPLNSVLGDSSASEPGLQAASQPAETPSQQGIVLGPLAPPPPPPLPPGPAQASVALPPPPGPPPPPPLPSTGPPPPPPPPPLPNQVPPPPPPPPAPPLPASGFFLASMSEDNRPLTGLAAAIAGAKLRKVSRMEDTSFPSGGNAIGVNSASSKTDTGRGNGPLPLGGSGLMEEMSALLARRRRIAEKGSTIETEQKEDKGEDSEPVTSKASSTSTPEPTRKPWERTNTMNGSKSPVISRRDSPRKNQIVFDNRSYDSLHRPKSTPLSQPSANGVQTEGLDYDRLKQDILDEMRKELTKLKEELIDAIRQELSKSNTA
# Chain of UniProt Q9NSC5 (Q9NSC5 whole entry): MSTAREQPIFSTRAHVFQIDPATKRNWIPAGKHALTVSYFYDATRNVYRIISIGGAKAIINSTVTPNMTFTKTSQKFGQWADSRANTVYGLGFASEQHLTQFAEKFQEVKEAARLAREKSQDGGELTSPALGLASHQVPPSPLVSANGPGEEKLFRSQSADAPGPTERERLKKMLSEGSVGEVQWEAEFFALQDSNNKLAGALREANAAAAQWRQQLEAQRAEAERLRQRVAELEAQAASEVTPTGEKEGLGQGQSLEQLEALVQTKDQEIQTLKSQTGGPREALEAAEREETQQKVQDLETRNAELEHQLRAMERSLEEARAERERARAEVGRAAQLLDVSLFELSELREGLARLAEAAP
substance,measurement,setting,value
"Protocadherin Fat 1 (Homo sapiens), Q14517 P4438D",effect of a mutation on the interaction,[1],disrupting interaction
same,effect of a mutation on the interaction,[2],disrupting interaction
